The target in this assay is BoGH13BSus (BoSusA), periplasmic GH13 neopullulanase of the Bacteroides ovatus Sus (Bacteroides ovatus). Kind of assay: SEC; 0.5 mL of 10.6 mg/mL BoSusA or 8.2 mg/mL SusA on HiPrep 16/60 Sephacryl S-200 HR, 20 mM HEPES, 100 mM NaCl, pH 7.0, 0.5 mL/min; compared with BioRad gel filtration standards. For orientation: Size exclusion chromatography separates by hydrodynamic size, large species first.

Consider “BoGH13BSus (BoSusA), periplasmic GH13 neopullulanase of the Bacteroides ovatus Sus (enzyme)”, for which the stoichiometry N (in general, a count of units in the complex or per binding partner) worked out at 2.

The record behind these values is PMC11633381, “Acarbose impairs gut Bacteroides growth by targeting intracellular glucosidases” (mBio, 2024).
